Reference: the RNAGym collection of RNA variant scans (doi:10.7554/elife.80360)

B1: CPEB3 Ribozyme (parent)
chain: GGGGGCCACAGCAGAAGCGUUCACGUCGCGGCCCCUGUCAGAUUCUGGUGAAUCUGCGAAUUCUGCUGU

Variants of: B1
Experiment: self-cleavage, relative activity (ratio to wild type); higher = more cleavage; co-transcriptional

Variant	self-cleavage
C18G A42U	0.137
C18G A42G	0.229
G17U U62A	0.281
G17U U62C	0.23
G17U U62G	0.316
C18G C45G	0.113
C18G C45A	0.0664
C18G C45U	0.183
C18A C39G	0.142
C18A C39U	0.136
C18A C39A	0.156
C18A G50U	0.284
C18A G50C	0.208
C18A G50A	0.191
G17U A40U	0.149
G17C U62A	0.171
G17C U62G	0.201
C18G C24A	0.105
C18A C57A	0.117
G17C G65U	0.131
G17C G65A	0.158
C18A C33G	0.123
C18A C33U	0.251
G17U C35A	0.214

Variant	self-cleavage
G17U C35U	0.338
G17U C35G	0.227
C18G C22A	0.179
C18G C22G	0.236
C18A C24A	0.142
C18A C24U	0.0604
C18A G56C	0.186
C18A U49G	0.259
G17C U21C	0.0625
G17C U21G	0.229
G17U G41U	0.194
G17U G41A	0.152
G17U G41C	0.14
C18G U36G	0.145
C18G U36A	0.12
C18G U36C	0.122
C18A U38C	0.0484
C18A U38A	0.0704
C18A C22G	0.159
C18A C22U	0.0813
C18A C22A	0.144
C18A A42U	0.0858
C18A A42C	0.166
C18A U21A	0.107

Variant	self-cleavage
C18A U21G	0.109
C18A U21C	0.181
C18G A23C	0.187
G17U A60G	0.248
G17U A60C	0.185
G17U A60U	0.229
G17U U26C	0.286
G17U U26A	0.312
G17U U26G	0.297
C18G G19U	0.153
C18G G19A	0.114
G17C U43G	0.0986
G17C U43C	0.111
G17C U43A	0.0954
C18G A52U	0.0952
G17U U69C	0.874
C18G A40U	0.167
C18G A40C	0.152
G17U C66G	0.24
C18G G31C	0.142
C18G G31U	0.181
C18G G31A	0.0986
C18G G58C	0.154
C18G G58U	0.176

Variant	self-cleavage
G17U U38A	0.255
G17U U38G	0.149
C18A G30U	0.132
C18A G30A	0.117
C18A G30C	0.133
C18A A59C	0.0942
G17C U64A	0.112
G17C U64G	0.171
G17C U64C	0.203
G17U C63A	0.182
G17U C63U	0.322
G17U C63G	0.229
C18A C29G	0.15
C18A C27A	0.163
G17U C27G	0.185
G17U C27A	0.132
C18A A23G	0.171
C18G C54A	0.186
C18A G37U	0.121
C18A G37A	0.14
C18G C57U	0.145
C18G C57A	0.0895
G17U U21A	0.367
G17U U21G	0.0999

Variant	self-cleavage
G17U A23G	0.331
G17U A23C	0.462
G17U G47A	0.683
G17U G47C	0.69
C18A C54U	0.173
C18A C54G	0.179
G17U U67C	0.537
C18A U61G	0.166
C18A U61A	0.138
C18G C63A	0.179
C18G C63U	0.136
C18G G28U	0.129
C18G G28C	0.911
C18A C35G	0.104
C18A C35U	0.222
C18G G50U	0.143
C18G G50A	0.266
C18A G65U	0.102
C18A G65A	0.148
C18A G28C	0.426
C18A G28A	0.12
C18A G28U	0.889
C18A C45G	0.179
C18A C45A	0.0998

Variant	self-cleavage
C18A C45U	0.21
G17U C24G	0.0814
G17U C24U	0.179
G17U C24A	0.133
C18G U38G	0.155
C18G U38C	0.234
C18A C63G	0.147
C18A C63U	0.151
G17C G68A	0.331
G17C G68C	0.242
G17U C32A	0.154
G17U G58U	0.65
G17U G58C	0.527
C18G C33U	0.226
C18G C33A	0.193
C18G C33G	0.147
C18G G48A	0.145
C18G G48U	0.208
C18G G48C	0.17
G17U U46C	0.537
G17U A59G	0.357
G17U A59U	0.147
G17U G68A	0.875
G17C U55C	0.138

Variant	self-cleavage
G17C U55G	0.062
C18G G56U	0.128
G17U C34G	0.177
G17U C34U	0.514
C18A G41C	0.119
C18A G41U	0.211
G17C U46C	0.119
G17C U46A	0.122
G17C U46G	0.101
G17C U26C	0.145
G17C U26A	0.156
G17C U26G	0.175
C18G A51C	0.159
C18A A40U	0.0764
C18A A40G	0.176
G17C G58U	0.227
C18A A60U	0.131
C18G G47A	0.21
C18G U49G	0.217
C18G U49C	0.147
C18G U21C	0.219
C18G U21G	0.174
C18G C66A	0.11
C18G G37U	0.0757

Variant	self-cleavage
C18G G37C	0.111
G17C U67G	0.209
G17C U67C	0.145
C18G G30U	0.183
C18G G30A	0.236
C18G G30C	0.167
G17U G50U	0.552
G17U G50C	0.386
G17U G50A	0.571
C18G C29A	0.16
C18G C29U	0.156
G17C U38C	0.137
G17C U38G	0.101
C18G U43G	0.0435
C18G U43C	0.188
C18G U43A	0.114
C18G G25U	0.151
C18G G25C	0.092
G17U U49G	0.455
G17U U49A	0.662
G17U U49C	0.554
G17U G30U	0.168
G17U G30C	0.119
C18G U46A	0.227

Variant	self-cleavage
C18G U46C	0.15
C18G A60G	0.137
C18G A60U	0.154
C18G A60C	0.0758
C18G G41C	0.0964
C18G G41U	0.134
C18G G41A	0.113
C18A U64G	0.178
G17U G31U	0.169
G17U G31A	0.191
G17U G31C	0.129
G17U C57U	0.228
G17U G25C	0.107
G17U G25A	0.143
C18A U69G	0.307
C18A U69A	0.302
G17U A42U	0.334
G17U A42C	0.299
G17U G37A	0.175
G17U G37C	0.159
G17U G37U	0.169
C18A G31A	0.187
C18A G31C	0.124
C18A G31U	0.129

Variant	self-cleavage
G17U U20A	0.151
G17U U20G	0.192
G17U U20C	0.107
C18A G25C	0.178
C18A G25U	0.0886
G17C U69A	0.246
G17C U69G	0.303
C18A U46A	0.217
C18A U46G	0.219
G17U G48C	0.635
G17U G48U	0.694
C18G C32U	0.195
C18G C32A	0.105
C18G C32G	0.195
C18A C32A	0.192
C18A C32G	0.181
C18A C32U	0.22
C18A A52U	0.258
C18A A52G	0.201
C18G G65A	0.131
C18G G65C	0.141
G17U G65U	0.292
G17U G65A	0.254
G17C U53G	0.126

Variant	self-cleavage
C18A G19U	0.12
C18A G19C	0.0974
G17C U20A	0.123
G17C U20G	0.132
C18A U26A	0.128
G17U U53G	0.336
G17U U53A	0.265
G17U G56C	0.219
G17U G56U	0.2
G17U G56A	0.32
G17U U44C	0.368
G17U U44A	0.395
G17U C45G	0.395
G17U C45U	0.528
G17U U61A	0.333
G17U U64C	0.251
G17U C54G	0.166
C18G U20C	0.0509
C18G U20G	0.218
C18A C34A	0.145
C18G G68C	0.21
C18G G68A	0.403
C18A U67G	0.348
C18A U67A	0.268

Variant	self-cleavage
C18A U67C	0.23
G17U A52G	0.585
G17U A52C	0.5
C18G C34A	0.131
C18G C34G	0.153
C18G C34U	0.133
G17U C33U	0.347
G17U C33A	0.228
G17U C22A	0.132
G17U C22U	0.169
G17U C22G	0.112
G17U C29A	0.921
G17U C29U	0.268
G17U C29G	0.885
C18G A59G	0.22
C18G A59U	0.17
C18A U53C	0.169
G17U A51U	0.43
G17U A51G	0.569
G17U A51C	0.423
C18A U55A	0.142
C18A U55G	0.113
C18A	0.2
C18G	0.188

Variant	self-cleavage
C18A G58U	0.184
C18A G58A	0.155
G17U G19A	0.209
G17U G19U	0.123
G17U U55G	0.238
G17U U55A	0.177
C18A A51G	0.233
C18A A51U	0.181
G17U U43C	0.446
G17C U61C	0.118
G17C U61G	0.205
C18A U44G	0.123
C18A U44A	0.185
G17U G28C	0.11
G17U G28A	0.108
C18A U43A	0.117
C18A U43G	0.117
C18A U20C	0.158
C18G C35U	0.203
C18G C35G	0.151
G17C U36G	0.163
G17C U36A	0.18
C18A G48U	0.186
C18A G68A	0.357

Variant	self-cleavage
C18A G68C	0.28
G17U C39G	0.289
G17U C39A	0.167
C18G U44A	0.116
C18G C27A	0.16
C18G C27G	0.224
G17U U36A	0.0699
G17U U36G	0.191
G17C U49G	0.148
G17C U49C	0.158
G17C U49A	0.149
G17U C18G	0.138
G17U C18U	0.155
G17U C18A	0.137
C18G U26A	0.119
C18G U26C	0.175
C18G U26G	0.267
C18A G47A	0.232
C18A G47U	0.203
C18A G47C	0.181
C18A U36A	0.182
C18A U36C	0.142
